{"source": "paper PMC7939443", "key": {"[1]": {"biological_target": "human poly(C)-binding protein 2 (PCBP2), full length, wild type (human) (UniProt Q15366)", "sequence (Q15366 whole entry)": "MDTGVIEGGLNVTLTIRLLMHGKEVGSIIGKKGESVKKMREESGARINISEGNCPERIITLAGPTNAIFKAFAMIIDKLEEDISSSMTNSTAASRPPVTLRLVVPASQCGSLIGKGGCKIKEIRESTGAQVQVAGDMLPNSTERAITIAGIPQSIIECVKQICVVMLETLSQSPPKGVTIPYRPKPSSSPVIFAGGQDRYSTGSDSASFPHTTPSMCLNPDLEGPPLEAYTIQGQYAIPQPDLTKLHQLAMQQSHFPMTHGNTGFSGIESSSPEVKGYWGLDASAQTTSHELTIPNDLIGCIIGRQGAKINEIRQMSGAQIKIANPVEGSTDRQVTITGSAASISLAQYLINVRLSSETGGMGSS", "experiment": "SAXS"}, "[2]": {"biological_target": "human poly(C)-binding protein 2 (PCBP2), full length, wild type (human) (UniProt Q15366)", "experiment": "AUC"}, "PCBP2 WT [3]": {"biological_target": "T1, PCBP2 WT (Homo sapiens, UniProt Q15366 1-365)", "T1 sequence (Q15366 whole entry)": "as above", "experiment": "EMSA; no appreciable binding at 28-fold molar excess", "details": "protein: recombinant; tags: N-terminal polyHis; single strand"}, "nsp1β WT;PCBP2 WT [4]": {"biological_target": "T2, nsp1β WT;PCBP2 WT (PRRSV isolate SD01-08 (Betaarterivirus …, UniProt Q04561;Q15366 181-385;1-365, |))", "T2 sequence (Q15366 whole entry, one chain of several)": "as the sequence (Q15366 whole entry) above", "experiment": "EMSA", "details": "protein: recombinant;recombinant; tags: GST tag removed with HRV 3C protease;N-terminal polyHis; copies: 1;1; single strand"}, "nsp1β WT;PCBP2 WT [5]": {"biological_target": "T2, nsp1β WT;PCBP2 WT", "experiment": "EMSA; supershift relative to PCBP2 alone; complex also purified by SEC", "details": "protein: recombinant;recombinant; tags: GST tag removed with HRV 3C protease;N-terminal polyHis; copies: 1;1; single strand"}, "nsp1β WT": {"biological_target": "T3, nsp1β WT (PRRSV isolate SD01-08 (Betaarterivirus …, UniProt Q04561 181-385))", "T3 sequence": "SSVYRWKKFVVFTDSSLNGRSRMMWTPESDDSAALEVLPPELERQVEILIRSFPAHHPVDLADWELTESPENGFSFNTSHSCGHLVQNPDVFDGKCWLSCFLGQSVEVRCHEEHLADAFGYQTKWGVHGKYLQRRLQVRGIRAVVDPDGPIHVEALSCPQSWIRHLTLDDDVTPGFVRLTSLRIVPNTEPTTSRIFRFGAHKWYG", "experiment": "EMSA; up to 20-fold molar excess", "details": "protein: recombinant; tags: GST tag removed with HRV 3C protease; single strand"}, "PCBP2 WT [6]": {"biological_target": "T1, PCBP2 WT", "experiment": "EMSA; seen from 8-fold, strong at 20-fold molar excess", "details": "protein: recombinant; tags: N-terminal polyHis; single strand"}, "nsp1β WT;PCBP2 WT [7]": {"biological_target": "T2, nsp1β WT;PCBP2 WT", "experiment": "EMSA; large molar excess of both proteins", "details": "protein: recombinant;recombinant; tags: GST tag removed with HRV 3C protease;N-terminal polyHis; copies: 1;1; single strand"}}, "data": [{"molecule": "PRRSV nonstructural protein 1β (nsp1β), isolate SD01-08, wild type (natural protein)", "values": [{"measurement": "stoichiometry N", "setting": "[1]", "result": 1}, {"measurement": "stoichiometry N", "setting": "[2]", "result": 1}]}, {"molecule": "GGGUUUUUGAAGUUUACUCCCAUCUCCCAGCUUU (ssRNA)", "note": "[34-nt PRRSV ssRNA]", "values": [{"measurement": "binding result", "setting": "PCBP2 WT [3]", "result": "no binding"}, {"measurement": "binding result", "setting": "nsp1β WT;PCBP2 WT [4]", "result": "binds"}]}, {"molecule": "GGGTTTTTGAAGTTTACTCCCATCTCCCAGCTTT (ssDNA)", "note": "[34-nt PRRSV ssDNA]", "values": [{"measurement": "binding result", "setting": "nsp1β WT;PCBP2 WT [5]", "result": "binds"}, {"measurement": "binding result", "setting": "nsp1β WT", "result": "no binding"}, {"measurement": "binding result", "setting": "PCBP2 WT [6]", "result": "binds"}]}, {"molecule": "GGGTTTTTGAAGTTTACTGAAATATGGCAGCTTT (ssDNA)", "note": "[34-nt CC2 ssDNA]", "values": [{"measurement": "binding result", "setting": "nsp1β WT;PCBP2 WT [7]", "result": "no binding"}]}]}
